Results: patent US20030039658

Assays:
[1] = target: FLAG-tagged DSIF p160 (FT-DSIFp160) (UniProt O00267)
[2] = target: RPB1, the largest (220 kDa) subunit of Pol II, within purified Pol II (UniProt P24928)
[3] = target: rGST-CTD, recombinant glutathione-S-transferase fusion protein containing a portion of the CTD of RPB1 of Pol II (UniProt P24928)

Sequence of Cyclin T1 (chain, as listed by the source): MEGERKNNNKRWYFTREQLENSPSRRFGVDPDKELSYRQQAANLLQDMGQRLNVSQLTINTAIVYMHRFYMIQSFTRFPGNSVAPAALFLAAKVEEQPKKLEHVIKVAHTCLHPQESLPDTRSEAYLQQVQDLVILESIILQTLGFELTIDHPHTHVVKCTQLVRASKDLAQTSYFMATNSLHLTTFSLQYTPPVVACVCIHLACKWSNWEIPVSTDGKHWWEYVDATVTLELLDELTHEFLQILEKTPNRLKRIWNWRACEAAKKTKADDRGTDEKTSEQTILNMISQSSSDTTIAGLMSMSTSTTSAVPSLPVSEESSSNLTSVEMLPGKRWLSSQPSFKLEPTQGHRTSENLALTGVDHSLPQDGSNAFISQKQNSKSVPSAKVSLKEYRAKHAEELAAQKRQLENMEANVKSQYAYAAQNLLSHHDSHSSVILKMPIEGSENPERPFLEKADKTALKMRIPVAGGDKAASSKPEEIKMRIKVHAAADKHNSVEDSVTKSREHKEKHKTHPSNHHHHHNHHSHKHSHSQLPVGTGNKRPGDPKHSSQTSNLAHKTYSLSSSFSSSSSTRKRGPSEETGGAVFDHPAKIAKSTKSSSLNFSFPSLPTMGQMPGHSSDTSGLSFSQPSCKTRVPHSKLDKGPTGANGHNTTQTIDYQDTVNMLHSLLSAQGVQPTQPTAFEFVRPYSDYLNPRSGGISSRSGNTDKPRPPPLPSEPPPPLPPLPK

FLAG-tagged CDK9 (FT-CDK9) was tested, and the “in vitro kinase assay (autophosphorylation of the preparation)” value (Cyclin T1) was “The FT-CDK9 immunopurification autophosphorylates specific components circa 45 kD and 87 kD, consistent with the molecular weights expected for Cyclin T1 and a FT-CDK9”, the “in vitro kinase assay (phosphorylation of the substrate)” value [1] was “the immunopurified f:CDK9 actively phosphorylated a circa 160 kDa polypeptide, most likely f:DSIF p160, within an immunopurified f:DSIF p160 preparation” and the “in vitro kinase assay (phosphorylation of the substrate)” value [2] was “The f:CDK9 immunopurified preparation was able to phosphorylate both rGST-CTD and RPB1 within Pol II”. For the same substance, the “in vitro kinase assay (phosphorylation of the substrate)” value [3] was “The f:CDK9 immunopurified preparation was able to phosphorylate both rGST-CTD and RPB1 within Pol II”.
In the case of “FLAG-tagged CDK9M (FT-CDK9M), CDK9 with the D167N mutation”, the “in vitro kinase assay (autophosphorylation of the preparation)” value (Cyclin T1) is reported as “The FT-CDK9M immunopurification was significantly weaker in its ability to autophosphorylate the 87 kD band”, the “in vitro kinase assay (phosphorylation of the substrate)” value [2] is reported as “significantly impaired in its ability to phosphorylate either rGST-CTD or RPB1 within Pol II” and the “in vitro kinase assay (phosphorylation of the substrate)” value [3] is reported as “significantly impaired in its ability to phosphorylate either rGST-CTD or RPB1 within Pol II”.
